From paper PMC6745792, “A novel biotinylated nanobody-based blocking ELISA for the rapid and sensitive clinical detection of porcine epidemic diarrhea virus” (Journal of Nanobiotechnology, 2019) come the findings set out here.

Test [1] addresses T1, PEDV N protein (recombinant nucleocapsid protein of porcine epidemic diarrhea virus) (Porcine epidemic diarrhea virus, strain …, UniProt Q07499).
T1 construct: also called PEDV N antigen; N-His-tagged recombinant protein; source: recombinant, purified ('highly pure')
In words: SPR; Biacore 3000; purified PEDV N protein (5 µg/ml) amine-coupled to a CM5 chip; Nb1, Nb2, Nb3 flowed at 3 µg/ml each; HBS-EP (10 mM HEPES pH 7.4, 150 mM NaCl, 3 mM EDTA, 0.005% P20), room temperature; 1:1 Langmuir model. To be noted: both partners purified.

The target of test [2] is T2, PEDV N protein (recombinant nucleocapsid protein of porcine epidemic diarrhea virus) (Porcine epidemic diarrhea virus, strain …, UniProt Q07499).
T2 construct: also called N-His recombinant protein; N-His-tagged recombinant protein; source: recombinant, purified
In words: SPR; Biacore 3000; purified PEDV N protein (5 µg/ml) amine-coupled to a CM5 chip; Nb1, Nb2 and Nb3 each flowed over at 3 µg/ml; HBS-EP (10 mM HEPES pH 7.4, 150 mM NaCl, 3 mM EDTA, 0.005% P20); room temperature; 1:1 Langmuir model. Background: Surface plasmon resonance follows binding to a sensor surface in real time, without labels.

B1: Nb1 (anti-PEDV N protein nanobody) (VHH)
VHH: QVQLQESGGGSVQSGGSLRLSCAVSGYTYSGLCMGWFRQAPGREREGVATIDTDGYTSYTDSVKGRFTISRDNAKNTLLLQMNSLQPEDTAMYYCAADPRTAIYCSTSRSAKWYNHWGQGTQVTVSS
In general, kon refers to a measure of how fast the partners come together. For the molecule B1, the kon in test [1] came to 197000 M⁻¹ s⁻¹.

B2: Nb1 (VHH)
VHH: B1 VHH
notes: VHH from a Bactrian camel immunised with PEDV N protein, selected by phage display
By koff is commonly meant a measure of how fast the partners let go of each other. As for B2, the koff in test [2] came to 0.00206 s⁻¹.
